Experimental data published in US20050261472A1, “Binding moieties for fibrin” (Dyax Corp., priority 1999, published 2005).
Bridge positions count the residues as written; N and C are the ends. Ends that are not written are not given here.

T1: dried fibrin (UniProt P02671 36-629; P02675 45-491; P02679 27-437, limits assumed)
T1 construct: Polymerised fibrin made in 96-well plates from fibrinogen and thrombin, dried at 37 C and rehydrated; also called (rehydrated) dried fibrin; fibrin target
T1 sequence (looked up) 1: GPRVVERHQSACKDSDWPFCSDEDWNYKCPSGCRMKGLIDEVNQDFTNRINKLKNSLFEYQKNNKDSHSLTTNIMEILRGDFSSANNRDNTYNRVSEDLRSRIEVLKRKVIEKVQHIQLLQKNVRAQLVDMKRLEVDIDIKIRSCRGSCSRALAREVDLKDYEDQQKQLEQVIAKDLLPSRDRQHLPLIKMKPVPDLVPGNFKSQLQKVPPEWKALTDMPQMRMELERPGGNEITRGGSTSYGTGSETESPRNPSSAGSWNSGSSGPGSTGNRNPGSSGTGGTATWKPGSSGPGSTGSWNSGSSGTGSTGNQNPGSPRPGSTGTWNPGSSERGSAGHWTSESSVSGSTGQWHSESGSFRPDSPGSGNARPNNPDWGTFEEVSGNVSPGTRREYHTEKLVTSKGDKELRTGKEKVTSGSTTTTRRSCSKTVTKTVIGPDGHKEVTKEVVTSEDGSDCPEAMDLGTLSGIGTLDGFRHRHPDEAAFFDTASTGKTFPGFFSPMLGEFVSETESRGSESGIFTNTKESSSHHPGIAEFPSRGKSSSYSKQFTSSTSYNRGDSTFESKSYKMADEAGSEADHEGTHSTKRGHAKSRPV
T1 sequence (looked up) 2: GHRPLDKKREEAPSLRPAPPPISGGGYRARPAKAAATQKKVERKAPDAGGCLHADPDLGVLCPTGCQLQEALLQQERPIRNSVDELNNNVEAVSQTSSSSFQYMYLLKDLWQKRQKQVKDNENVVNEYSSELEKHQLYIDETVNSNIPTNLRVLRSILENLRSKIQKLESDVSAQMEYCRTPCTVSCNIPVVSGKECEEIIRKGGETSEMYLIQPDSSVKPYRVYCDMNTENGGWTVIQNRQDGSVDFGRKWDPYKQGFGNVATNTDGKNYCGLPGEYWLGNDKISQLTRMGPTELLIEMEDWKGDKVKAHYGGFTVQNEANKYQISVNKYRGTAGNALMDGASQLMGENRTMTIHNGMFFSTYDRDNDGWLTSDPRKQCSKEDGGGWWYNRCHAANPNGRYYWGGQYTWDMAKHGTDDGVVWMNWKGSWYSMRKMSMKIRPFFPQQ
T1 sequence (looked up) 3: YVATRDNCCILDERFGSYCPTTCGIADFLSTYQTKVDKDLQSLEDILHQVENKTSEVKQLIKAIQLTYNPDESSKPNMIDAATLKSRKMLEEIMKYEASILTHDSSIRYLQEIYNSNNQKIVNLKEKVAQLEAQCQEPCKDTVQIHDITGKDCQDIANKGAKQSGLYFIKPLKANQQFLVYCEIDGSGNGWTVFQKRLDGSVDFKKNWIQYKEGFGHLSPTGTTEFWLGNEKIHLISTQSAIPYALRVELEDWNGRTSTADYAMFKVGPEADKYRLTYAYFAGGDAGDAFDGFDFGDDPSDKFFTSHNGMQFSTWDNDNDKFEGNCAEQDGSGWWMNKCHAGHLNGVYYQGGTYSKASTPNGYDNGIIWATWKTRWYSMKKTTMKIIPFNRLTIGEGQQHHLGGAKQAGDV


Key:
[1] = target: DD(E) soluble fibrin-derived polypeptide (UniProt P02671); test: Kd against DD(E) target
[2] = target: DD(E) soluble fibrin-derived polypeptide (UniProt P02671); test: synthetic peptide, Kd against DD(E) target
dried fibrin [3] = target: T1, dried fibrin; test: dried fibrin plate, bound vs free peptide
dried fibrin [4] = target: T1, dried fibrin; test: dried fibrin plate, free peptide by mass spectrometry, bound vs free fit
Procedure: (§1) A fibrinogen solution was prepared at 10 mg/ml (or at twice the concentration of fibrin desired) in TBS buffer (50 mM Tris, 150 mM NaCl, pH 7.4). The fibrinogen solution typically contained ˜17 mM citrate. Subsequently, a solution was prepared containing 2 U/ml thrombin, 20 mM CaCl₂, and 5 mM ε-aminocaproic acid in TBS. The fibrinogen solution and thrombin solution were mixed 1:1 in the wells of a 96-well plate, aliquoting 50 μL of each solution in each well (total volume=100 μL). The plates were evaporated to dryness overnight at 37° C. The polypeptide to be tested, dissolved in water, was added to each well at concentrations between 1-200 μM. […] The plate containing the peptide and (rehydrated) dried fibrin was covered and incubated at 37° C. on a shaker table for 2 hours.
(§2) The supernatant in each well was removed by pipette and the concentration of the polypeptide was measured by mass spectrometry. The ion current detected at the mass of the peptide was monitored after injection of a sample into the mass spectrometer. The area-under-the-peak was quantitated and compared to standards of known concentration. The concentration of peptide in the supernatant is equal to the concentration of free peptide. The concentration of bound peptide was determined by subtracting the concentration of free peptide from the total (starting) concentration. A plot of [Bound Peptide] vs. [Free Peptide] was used to determine the Kd and the concentration of bound peptide at saturation. The curve was fit to the equation: [Bound]=N×[Free]/(Kd+[Free]) where [Bound] is the concentration of bound polypeptide, [Free] is the concentration of free polypeptide, Kd is the dissociation constant (equal to the reciprocal of Kₐ) and N is the concentration of binding sites. The number of binding sites per fibrin molecule was equal to the lo concentration of binding sites determined by the [Bound Polypeptide] vs. [Free Polypeptide] plot, divided by the concentration of fibrin (15 μM) used in the assay.

dried fibrin [5] = target: T1, dried fibrin; test: dried fibrin plate, bound vs free peptide; remark: listed apart in the source
Procedure: as §1, §2

Row | Binder | Kd [1] [µM] | Kd (dried fibrin [4]) [µM] | Kd (dried fibrin [5]) [µM] | further results
1 | WFHCPYDLCHIL (disulfide 4-9 (inferred)) | 2.63 | – | – | Kd [2]: 2.63 µM
2 | H-LPCSYYGTCLH-NH2 (disulfide 3-9; SMILES CC(C)C[C@H](NC(=O)[C@@H]1CSSC[C@H](NC(=O)[C@@H]2CCCN2C(=O)[C@@H](N)CC(C)C)C(=O)N[C@@H](CO)C(=O)N[C@@H](Cc2ccc(O)cc2)C(=O)N[C@@H](Cc2ccc(O)cc2)C(=O)NCC(=O)N[C@@H]([C@@H](C)O)C(=O)N1)C(=O)N[C@@H](Cc1c[nH]cn1)C(N)=O, Solid-phase synthesis; disulfide loop between the cysteines) [synthetic polypeptide LPCSYYGTCLH] | – | 13 | – | –
3 | H-RPCDYYGTCFD-NH2 (disulfide 3-9; SMILES C[C@@H](O)[C@@H]1NC(=O)CNC(=O)[C@H](Cc2ccc(O)cc2)NC(=O)[C@H](Cc2ccc(O)cc2)NC(=O)[C@H](CC(=O)O)NC(=O)[C@@H](NC(=O)[C@@H]2CCCN2C(=O)[C@@H](N)CCCNC(=N)N)CSSC[C@@H](C(=O)N[C@@H](Cc2ccccc2)C(=O)N[C@@H](CC(=O)O)C(N)=O)NC1=O, Solid-phase synthesis; disulfide loop between the cysteines) [synthetic polypeptide RPCDYYGTCFD] | – | 6.8 | – | –
4 | H-RPCNYYGTCLH-NH2 (disulfide 3-9; SMILES CC(C)C[C@H](NC(=O)[C@@H]1CSSC[C@H](NC(=O)[C@@H]2CCCN2C(=O)[C@@H](N)CCCNC(=N)N)C(=O)N[C@@H](CC(N)=O)C(=O)N[C@@H](Cc2ccc(O)cc2)C(=O)N[C@@H](Cc2ccc(O)cc2)C(=O)NCC(=O)N[C@@H]([C@@H](C)O)C(=O)N1)C(=O)N[C@@H](Cc1c[nH]cn1)C(N)=O, Solid-phase synthesis; disulfide loop between the cysteines) [synthetic polypeptide RPCNYYGTCLH] | – | 8.5 | – | –
5 | H-LACDYYGTCLD-NH2 (disulfide 3-9; SMILES CC(C)C[C@H](NC(=O)[C@@H]1CSSC[C@H](NC(=O)[C@H](C)NC(=O)[C@@H](N)CC(C)C)C(=O)N[C@@H](CC(=O)O)C(=O)N[C@@H](Cc2ccc(O)cc2)C(=O)N[C@@H](Cc2ccc(O)cc2)C(=O)NCC(=O)N[C@@H]([C@@H](C)O)C(=O)N1)C(=O)N[C@@H](CC(=O)O)C(N)=O) [alanine scan peptide LACDYYGTCLD] | – | – | 31 | –
6 | QWECPYGLCWIQ (disulfide 4-9 (inferred)) | 2.96 | – | – | Kd [2]: 2.96 µM

Now from value to binder, other results behind:

Row | Kd [1] [µM] | Kd (dried fibrin [4]) [µM] | Kd (dried fibrin [5]) [µM] | Binder | further results
7 | 3.1 | – | – | GQWECPYGLCWIQ (disulfide 5-10; not fully specified (N-terminus); also: Gd(III) chelate of DTPA) [Gd-DTPA-Gly[SEQ ID NO: 22]] | Kd (dried fibrin [3]): 3.6 µM
8 | – | – | 16 | H-LPCDAYGTCLD-NH2 (disulfide 3-9; SMILES CC(C)C[C@H](NC(=O)[C@@H]1CSSC[C@H](NC(=O)[C@@H]2CCCN2C(=O)[C@@H](N)CC(C)C)C(=O)N[C@@H](CC(=O)O)C(=O)N[C@@H](C)C(=O)N[C@@H](Cc2ccc(O)cc2)C(=O)NCC(=O)N[C@@H]([C@@H](C)O)C(=O)N1)C(=O)N[C@@H](CC(=O)O)C(N)=O) [alanine scan peptide LPCDAYGTCLD] | –
9 | – | – | 32 | H-LPCDYYGTCAD-NH2 (disulfide 3-9; SMILES CC(C)C[C@H](N)C(=O)N1CCC[C@H]1C(=O)N[C@H]1CSSC[C@@H](C(=O)N[C@@H](C)C(=O)N[C@@H](CC(=O)O)C(N)=O)NC(=O)[C@H]([C@@H](C)O)NC(=O)CNC(=O)[C@H](Cc2ccc(O)cc2)NC(=O)[C@H](Cc2ccc(O)cc2)NC(=O)[C@H](CC(=O)O)NC1=O) [alanine scan peptide LPCDYYGTCAD] | –
10 | – | – | 41 | LPCDYYATCLD (C-terminal amide; N-terminus free) [alanine scan peptide LPCDYYATCLD] | –
